{"source": "patent US10464978B2", "about": "“Peptides and combination of peptides for use in immunotherapy against ovarian cancer and other cancers” (immatics biotechnologies GmbH, priority 2015, dated 2019)"}
{"biological_target": "HLA-A*02:01 (Homo sapiens, UniProt P04439, D140Y/D185E/D98H/E176V/E277Q/G131W/G231S/I119V/I121R/I166T/I218V/L300P/L318F/N151K/N90K/P208A/P217A/Q86G/Q94H/R138H/R169H/T345S)", "experiment": "MHC binding assay: UV-ligand exchange with beta2m ELISA (peptide exchange yield)", "settings": "binding to HLA-A*02:01", "how_it_was_run": "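Peptide-MHC complexes formed by UV-ligand exchange, a UV-cleavable peptide being replaced by the candidate peptide. Exchange products diluted 100-fold, captured on streptavidin-coated plates for 1h at 37° C, then detected with 2 ug/ml HRP anti-β2m (1h, 37° C) and TMB, absorbance 450 nm; value is exchange yield.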"}
{"substance": "240 (ILLEQAFYL; listed as Homo sapiens) [compound 240]", "Peptide exchange (MHC class I binding score, peptide exchange yield)": "“+++” (≥50 = +++)"}
{"substance": "436 (HLAEVSAEV; listed as Homo sapiens) [compound 436]", "Peptide exchange (MHC class I binding score, peptide exchange yield)": "“+++” (≥50 = +++)"}
{"substance": "141 (YLDFSNNRL; listed as Homo sapiens) [compound 141]", "Peptide exchange (MHC class I binding score, peptide exchange yield)": "“++” (≥20% = ++)"}
{"substance": "491 (GLNDRSDAV; listed as Homo sapiens) [compound 491]", "Peptide exchange (MHC class I binding score, peptide exchange yield)": "“++” (≥20% = ++)"}
{"substance": "168 (KILDADIQL; listed as Homo sapiens) [compound 168]", "Peptide exchange (MHC class I binding score, peptide exchange yield)": "“++++” (≥75% = ++++)"}
{"substance": "599 (YLLNDASLISV; listed as Homo sapiens) [compound 599]", "Peptide exchange (MHC class I binding score, peptide exchange yield)": "“+++” (≥50 = +++)"}
{"substance": "365 (YVIDQGETDVYV; listed as Homo sapiens) [compound 365]", "Peptide exchange (MHC class I binding score, peptide exchange yield)": "“+++” (≥50 = +++)"}
{"substance": "487 (LLINSVFHV; listed as Homo sapiens) [compound 487]", "Peptide exchange (MHC class I binding score, peptide exchange yield)": "“+++” (≥50 = +++)"}
{"substance": "366 (RLLDMGETDLML; listed as Homo sapiens) [compound 366]", "Peptide exchange (MHC class I binding score, peptide exchange yield)": "“+++” (≥50 = +++)"}
{"substance": "46 (ILTEENIHL; listed as Homo sapiens) [compound 46]", "Peptide exchange (MHC class I binding score, peptide exchange yield)": "“+++” (≥50 = +++)"}
{"substance": "538 (LLLAHIIAL; listed as Homo sapiens) [compound 538]", "Peptide exchange (MHC class I binding score, peptide exchange yield)": "“++” (≥20% = ++)"}
{"substance": "274 (SLLFSLFEA; listed as Homo sapiens) [compound 274]", "Peptide exchange (MHC class I binding score, peptide exchange yield)": "“++” (≥20% = ++)"}
{"substance": "2 (SLLEADPFL; listed as Homo sapiens) [compound 2]", "Peptide exchange (MHC class I binding score, peptide exchange yield)": "“+++” (≥50 = +++)"}
{"substance": "309 (GLFDGVPTTA; listed as Homo sapiens) [compound 309]", "Peptide exchange (MHC class I binding score, peptide exchange yield)": "“+++” (≥50 = +++)"}
{"substance": "340 (ALLSMTFPL; listed as Homo sapiens) [compound 340]", "Peptide exchange (MHC class I binding score, peptide exchange yield)": "“++++” (≥75% = ++++)"}
{"substance": "209 (KLIESKHEV; listed as Homo sapiens) [compound 209]", "Peptide exchange (MHC class I binding score, peptide exchange yield)": "“++” (≥20% = ++)"}
{"substance": "179 (KVLNELYTV; listed as Homo sapiens) [compound 179]", "Peptide exchange (MHC class I binding score, peptide exchange yield)": "“+++” (≥50 = +++)"}
{"substance": "228 (AMQEYIAVV; listed as Homo sapiens) [compound 228]", "Peptide exchange (MHC class I binding score, peptide exchange yield)": "“++” (≥20% = ++)"}
{"substance": "54 (SLLEQGKEPWMV; listed as Homo sapiens) [compound 54]", "Peptide exchange (MHC class I binding score, peptide exchange yield)": "“+++” (≥50 = +++)"}
{"substance": "611 (YLLDDGTLVV; listed as Homo sapiens) [compound 611]", "Peptide exchange (MHC class I binding score, peptide exchange yield)": "“++++” (≥75% = ++++)"}
{"substance": "390 (ALFMKQIYL; listed as Homo sapiens) [compound 390]", "Peptide exchange (MHC class I binding score, peptide exchange yield)": "“+++” (≥50 = +++)"}
{"substance": "96 (YIFTDNPAAV; listed as Homo sapiens) [compound 96]", "Peptide exchange (MHC class I binding score, peptide exchange yield)": "“+++” (≥50 = +++)"}
{"substance": "621 (VLMDRLPSLL; listed as Homo sapiens) [compound 621]", "Peptide exchange (MHC class I binding score, peptide exchange yield)": "“++++” (≥75% = ++++)"}
{"substance": "288 (NLINEINGV; listed as Homo sapiens) [compound 288]", "Peptide exchange (MHC class I binding score, peptide exchange yield)": "“+++” (≥50 = +++)"}
{"substance": "43 (VLSSLEINI; listed as Homo sapiens) [compound 43]", "Peptide exchange (MHC class I binding score, peptide exchange yield)": "“++” (≥20% = ++)"}
{"substance": "114 (SLVGEPILQNV; listed as Homo sapiens) [compound 114]", "Peptide exchange (MHC class I binding score, peptide exchange yield)": "“++” (≥20% = ++)"}
{"substance": "485 (NVPDSFNEV; listed as Homo sapiens) [compound 485]", "Peptide exchange (MHC class I binding score, peptide exchange yield)": "“+++” (≥50 = +++)"}
{"substance": "617 (ALMYESEKVGV; listed as Homo sapiens) [compound 617]", "Peptide exchange (MHC class I binding score, peptide exchange yield)": "“+++” (≥50 = +++)"}
{"substance": "441 (ALLENPKMEL; listed as Homo sapiens) [compound 441]", "Peptide exchange (MHC class I binding score, peptide exchange yield)": "“+++” (≥50 = +++)"}
{"substance": "282 (LLADVVPTT; listed as Homo sapiens) [compound 282]", "Peptide exchange (MHC class I binding score, peptide exchange yield)": "“+++” (≥50 = +++)"}
{"substance": "587 (VMNDRLYAI; listed as Homo sapiens) [compound 587]", "Peptide exchange (MHC class I binding score, peptide exchange yield)": "“+++” (≥50 = +++)"}
{"substance": "85 (KMSELRVTL; listed as Homo sapiens) [compound 85]", "Peptide exchange (MHC class I binding score, peptide exchange yield)": "“+++” (≥50 = +++)"}
{"substance": "142 (FLFATPVFI; listed as Homo sapiens) [compound 142]", "Peptide exchange (MHC class I binding score, peptide exchange yield)": "“+++” (≥50 = +++)"}
{"substance": "458 (SLIDKLYNI; listed as Homo sapiens) [compound 458]", "Peptide exchange (MHC class I binding score, peptide exchange yield)": "“++” (≥20% = ++)"}
{"substance": "138 (YQYPRAILSV; listed as Homo sapiens) [compound 138]", "Peptide exchange (MHC class I binding score, peptide exchange yield)": "“+++” (≥50 = +++)"}
{"substance": "324 (FLYDEIEAEV; listed as Homo sapiens) [compound 324]", "Peptide exchange (MHC class I binding score, peptide exchange yield)": "“+++” (≥50 = +++)"}
{"substance": "572 (ALADLIEKELSV; listed as Homo sapiens) [compound 572]", "Peptide exchange (MHC class I binding score, peptide exchange yield)": "“+++” (≥50 = +++)"}
{"substance": "409 (LLDAMNYHL; listed as Homo sapiens) [compound 409]", "Peptide exchange (MHC class I binding score, peptide exchange yield)": "“++” (≥20% = ++)"}
{"substance": "591 (SMAELDIKL; listed as Homo sapiens) [compound 591]", "Peptide exchange (MHC class I binding score, peptide exchange yield)": "“+++” (≥50 = +++)"}
{"substance": "6 (VLVSDGVHSV; listed as Homo sapiens) [compound 6]", "Peptide exchange (MHC class I binding score, peptide exchange yield)": "“+++” (≥50 = +++)"}
{"substance": "396 (ALLPDLPAL; listed as Homo sapiens) [compound 396]", "Peptide exchange (MHC class I binding score, peptide exchange yield)": "“+++” (≥50 = +++)"}
{"substance": "164 (ALLPQPKNLTV; listed as Homo sapiens) [compound 164]", "Peptide exchange (MHC class I binding score, peptide exchange yield)": "“+++” (≥50 = +++)"}
{"substance": "602 (YLLEQIKLIEV; listed as Homo sapiens) [compound 602]", "Peptide exchange (MHC class I binding score, peptide exchange yield)": "“++++” (≥75% = ++++)"}
{"substance": "133 (KVLSNIHTV; listed as Homo sapiens) [compound 133]", "Peptide exchange (MHC class I binding score, peptide exchange yield)": "“++” (≥20% = ++)"}
{"substance": "513 (SLWPSPEQL; listed as Homo sapiens) [compound 513]", "Peptide exchange (MHC class I binding score, peptide exchange yield)": "“++” (≥20% = ++)"}
{"substance": "11 (KIFEMLEGV; listed as Homo sapiens) [compound 11]", "Peptide exchange (MHC class I binding score, peptide exchange yield)": "“+++” (≥50 = +++)"}
{"substance": "92 (YLIPFTGIVGL; listed as Homo sapiens) [compound 92]", "Peptide exchange (MHC class I binding score, peptide exchange yield)": "“++” (≥20% = ++)"}
{"substance": "330 (QLALKVEGV; listed as Homo sapiens) [compound 330]", "Peptide exchange (MHC class I binding score, peptide exchange yield)": "“+++” (≥50 = +++)"}
{"substance": "243 (LLLNELPSV; listed as Homo sapiens) [compound 243]", "Peptide exchange (MHC class I binding score, peptide exchange yield)": "“+++” (≥50 = +++)"}
{"substance": "518 (KLNAEVACV; listed as Homo sapiens) [compound 518]", "Peptide exchange (MHC class I binding score, peptide exchange yield)": "“+++” (≥50 = +++)"}
{"substance": "550 (FLYDEIEAEVNL; listed as Homo sapiens) [compound 550]", "Peptide exchange (MHC class I binding score, peptide exchange yield)": "“+++” (≥50 = +++)"}
{"substance": "72 (SLLELDGINL; listed as Homo sapiens) [compound 72]", "Peptide exchange (MHC class I binding score, peptide exchange yield)": "“+++” (≥50 = +++)"}
{"substance": "600 (ALAAPDIVPAL; listed as Homo sapiens) [compound 600]", "Peptide exchange (MHC class I binding score, peptide exchange yield)": "“+++” (≥50 = +++)"}
{"substance": "98 (LIIDQADIYL; listed as Homo sapiens) [compound 98]", "Peptide exchange (MHC class I binding score, peptide exchange yield)": "“+++” (≥50 = +++)"}
{"substance": "544 (LLWDVPAPSL; listed as Homo sapiens) [compound 544]", "Peptide exchange (MHC class I binding score, peptide exchange yield)": "“+++” (≥50 = +++)"}
{"substance": "249 (LLDGFLVNV; listed as Homo sapiens) [compound 249]", "Peptide exchange (MHC class I binding score, peptide exchange yield)": "“+++” (≥50 = +++)"}
{"substance": "1 (SLMEPPAVLLL; listed as Homo sapiens) [compound 1]", "Peptide exchange (MHC class I binding score, peptide exchange yield)": "“+++” (≥50 = +++)"}
{"substance": "433 (AMLNEPWAV; listed as Homo sapiens) [compound 433]", "Peptide exchange (MHC class I binding score, peptide exchange yield)": "“+++” (≥50 = +++)"}
{"substance": "304 (MTLGQIYYL; listed as Homo sapiens) [compound 304]", "Peptide exchange (MHC class I binding score, peptide exchange yield)": "“+++” (≥50 = +++)"}
{"substance": "63 (YLLPSGGSVTL; listed as Homo sapiens) [compound 63]", "Peptide exchange (MHC class I binding score, peptide exchange yield)": "“++” (≥20% = ++)"}
{"substance": "8 (FTLGNVVGMYL; listed as Homo sapiens) [compound 8]", "Peptide exchange (MHC class I binding score, peptide exchange yield)": "“++++” (≥75% = ++++)"}
{"substance": "498 (KLWTGGLDNTV; listed as Homo sapiens) [compound 498]", "Peptide exchange (MHC class I binding score, peptide exchange yield)": "“+++” (≥50 = +++)"}
{"substance": "619 (ALQDRVPLA; listed as Homo sapiens) [compound 619]", "Peptide exchange (MHC class I binding score, peptide exchange yield)": "“+++” (≥50 = +++)"}
{"substance": "81 (FLFSQLQYL; listed as Homo sapiens) [compound 81]", "Peptide exchange (MHC class I binding score, peptide exchange yield)": "“++” (≥20% = ++)"}
{"substance": "284 (ILLSQTTGV; listed as Homo sapiens) [compound 284]", "Peptide exchange (MHC class I binding score, peptide exchange yield)": "“+++” (≥50 = +++)"}
{"substance": "218 (SALEELVNV; listed as Homo sapiens) [compound 218]", "Peptide exchange (MHC class I binding score, peptide exchange yield)": "“++” (≥20% = ++)"}
{"substance": "267 (ALQDFLLSV; listed as Homo sapiens) [compound 267]", "Peptide exchange (MHC class I binding score, peptide exchange yield)": "“+++” (≥50 = +++)"}
